From the Human Domainome abundance scans (Beltran et al. 2025)
± gives the uncertainty stated by the source.

B1: Cyclin-F, residues 28 to 80; numbered along this chain, P41002 (parent)
chain: RNLTILSLPEDVLFHILKWLSVEDILAVRAVHSQLKDLVDNHASVWACASFQE

Variants of: B1
Test: abundance fitness (aPCA) (normalised: wild type 0, dead -1); higher = more abundant; growth selection in yeast, the domain comes from the species named
Conditions: Homo sapiens

Abundance fitness: each site, then its substitutions
L26: P -0.694 ± 0.17 | Q -0.147 ± 0.11 | R -0.169 ± 0.08 | S -0.5 ± 0.12 | T -0.396 ± 0.14 | V -0.452 ± 0.1 | Y -0.386 ± 0.16
A27: C -0.091 ± 0.11 | E -0.715 ± 0.19 | F -0.945 ± 0.24 | G -0.787 ± 0.098 | H -0.259 ± 0.38 | I -0.285 ± 0.24 | K -0.175 ± 0.14 | M -0.273 ± 0.12 | P -0.44 ± 0.17 | Q -0.089 ± 0.18 | R -0.047 ± 0.085 | T 0.087 ± 0.15 | V -0.238 ± 0.084 | W -0.622 ± 0.14 | Y -0.876 ± 0.25
V28: A -0.774 ± 0.13 | C -0.173 ± 0.17 | D -0.885 ± 0.21 | E -0.82 ± 0.18 | F -0.396 ± 0.14 | G -0.759 ± 0.1 | H -0.372 ± 0.22 | I -0.184 ± 0.09 | K -0.71 ± 0.2 | L 0.168 ± 0.083 | M 0.036 ± 0.14 | N -1.09 ± 0.37 | P -0.88 ± 0.15 | Q -0.716 ± 0.2 | R -0.833 ± 0.12 | S -0.823 ± 0.12 | T -0.615 ± 0.15 | W -0.705 ± 0.13
R29: A -0.827 ± 0.19 | C -0.635 ± 0.19 | E -0.863 ± 0.18 | F -0.574 ± 0.17 | G -0.795 ± 0.12 | H -0.65 ± 0.14 | I -0.793 ± 0.18 | L -0.833 ± 0.11 | M -0.541 ± 0.14 | N -0.955 ± 0.19 | P -0.716 ± 0.16 | Q -0.801 ± 0.15 | S -0.655 ± 0.1 | T -0.909 ± 0.2 | V -0.541 ± 0.12 | W -0.814 ± 0.15 | Y -0.713 ± 0.21
A30: C 0.089 ± 0.13 | F -0.62 ± 0.16 | I -0.264 ± 0.14 | K -0.339 ± 0.14 | L 0.377 ± 0.075 | M 0.188 ± 0.11 | N -0.356 ± 0.21 | P -0.844 ± 0.14 | Q -0.031 ± 0.11 | R 0.053 ± 0.074 | S 0.111 ± 0.081 | T -0.04 ± 0.12 | V -0.125 ± 0.098 | W -0.836 ± 0.12
V31: A -0.046 ± 0.089 | C -0.056 ± 0.1 | D -0.729 ± 0.2 | E -1.16 ± 0.24 | F -0.747 ± 0.17 | G -0.672 ± 0.11 | H -0.976 ± 0.22 | I -0.594 ± 0.11 | K -0.809 ± 0.24 | M -0.681 ± 0.16 | N -0.586 ± 0.31 | Q -0.532 ± 0.15 | R -0.754 ± 0.14 | S 0.191 ± 0.09 | T 0.124 ± 0.11 | W -0.769 ± 0.19 | Y -0.964 ± 0.23
H32: A -0.438 ± 0.1 | C 0.209 ± 0.13 | E -0.653 ± 0.14 | G -0.591 ± 0.11 | I -0.825 ± 0.23 | K -0.912 ± 0.2 | L -0.757 ± 0.13 | M -1.09 ± 0.3 | N 0.262 ± 0.1 | P -0.737 ± 0.15 | R -0.787 ± 0.11 | S 0.096 ± 0.081 | T -0.503 ± 0.14 | V -0.532 ± 0.1 | W -0.937 ± 0.19 | Y -0.895 ± 0.13
S33: A -0.648 ± 0.072 | C -0.828 ± 0.15 | E -0.675 ± 0.081 | F -0.801 ± 0.11 | G -0.554 ± 0.064 | H -0.443 ± 0.11 | I -0.855 ± 0.14 | K -0.294 ± 0.091 | M -0.72 ± 0.089 | N -0.67 ± 0.14 | Q -0.672 ± 0.11 | R -0.158 ± 0.061 | T -0.247 ± 0.08 | V -0.544 ± 0.066 | W -0.48 ± 0.078 | Y -0.791 ± 0.12
Q34: A -0.111 ± 0.062 | C -0.248 ± 0.086 | D -0.446 ± 0.087 | E -0.455 ± 0.078 | F -0.4 ± 0.1 | H -0.121 ± 0.1 | I -0.129 ± 0.088 | L -0.368 ± 0.064 | M -0.156 ± 0.075 | N -0.417 ± 0.13 | P -0.807 ± 0.11 | R 0.109 ± 0.062 | S -0.06 ± 0.065 | T 0.004 ± 0.071 | V -0.126 ± 0.061 | W -0.753 ± 0.1 | Y -0.374 ± 0.12
L35: A -0.772 ± 0.12 | C -0.643 ± 0.22 | D -0.528 ± 0.29 | E -0.745 ± 0.14 | F -0.172 ± 0.16 | H -0.831 ± 0.34 | I -0.158 ± 0.22 | K -0.805 ± 0.2 | P -0.842 ± 0.18 | Q -0.861 ± 0.18 | R -0.884 ± 0.14 | S -0.786 ± 0.14 | V -0.768 ± 0.11 | W -0.567 ± 0.13 | Y -0.687 ± 0.41
K36: A -0.561 ± 0.13 | C -0.915 ± 0.18 | D -0.886 ± 0.28 | E -0.771 ± 0.21 | F -0.811 ± 0.21 | G -0.891 ± 0.14 | H -0.445 ± 0.15 | I -0.986 ± 0.23 | L -0.625 ± 0.12 | M -0.932 ± 0.2 | N -0.779 ± 0.23 | P -0.573 ± 0.16 | Q -0.609 ± 0.23 | R 0.054 ± 0.084 | S -0.788 ± 0.11 | T -0.723 ± 0.16 | V -0.785 ± 0.12 | W -0.626 ± 0.22 | Y -0.883 ± 0.23
D37: A 0.027 ± 0.098 | C 0.012 ± 0.13 | F -0.222 ± 0.16 | G -0.044 ± 0.085 | H -0.086 ± 0.17 | I 0.228 ± 0.34 | K 0.356 ± 0.15 | L 0.03 ± 0.089 | M 0.158 ± 0.14 | N -0.017 ± 0.13 | P -1.02 ± 0.2 | Q 0.075 ± 0.17 | S 0.006 ± 0.098 | T 0.076 ± 0.12 | V -0.049 ± 0.1 | W -0.42 ± 0.13
L38: A -0.075 ± 0.094 | C 0.17 ± 0.099 | D -0.758 ± 0.18 | E -0.872 ± 0.24 | F 0.07 ± 0.13 | G -0.561 ± 0.095 | H -0.12 ± 0.2 | I 0.244 ± 0.17 | K -0.34 ± 0.17 | M -0.008 ± 0.13 | N -0.906 ± 0.26 | P -0.935 ± 0.27 | Q -0.682 ± 0.2 | R -0.633 ± 0.11 | S -0.302 ± 0.1 | T -0.133 ± 0.15 | V 0.273 ± 0.088 | W -0.214 ± 0.12 | Y -0.151 ± 0.16
V39: A -0.341 ± 0.11 | C -0.245 ± 0.12 | D -0.655 ± 0.21 | E -0.819 ± 0.17 | F -0.819 ± 0.22 | I -0.074 ± 0.098 | K -0.767 ± 0.15 | L -0.287 ± 0.1 | M -0.781 ± 0.27 | P -0.931 ± 0.19 | Q -0.362 ± 0.3 | R -0.793 ± 0.099 | S -0.445 ± 0.12 | T -0.787 ± 0.19 | W -0.648 ± 0.15
D40: A -0.917 ± 0.13 | C -0.912 ± 0.22 | E -0.684 ± 0.17 | F -0.828 ± 0.22 | G -0.77 ± 0.1 | H -0.552 ± 0.19 | K -0.805 ± 0.27 | L -0.919 ± 0.12 | M -0.884 ± 0.28 | N -0.664 ± 0.15 | P -0.791 ± 0.2 | Q -0.49 ± 0.2 | R -0.749 ± 0.11 | S -0.432 ± 0.12 | T -0.444 ± 0.15 | V -0.606 ± 0.095 | W -1.03 ± 0.2 | Y -0.862 ± 0.22
N41: A -0.071 ± 0.21 | D -0.435 ± 0.19 | E -0.039 ± 0.17 | F -0.692 ± 0.19 | G -0.033 ± 0.11 | H -0.035 ± 0.18 | I -0.455 ± 0.21 | K 0.231 ± 0.16 | L -0.306 ± 0.1 | M -0.272 ± 0.16 | P -0.59 ± 0.15 | Q 0.128 ± 0.14 | R 0.241 ± 0.09 | S 0.052 ± 0.1 | T -0.131 ± 0.15 | V -0.484 ± 0.15 | W -0.733 ± 0.2 | Y -0.569 ± 0.27
H42: A -0.442 ± 0.087 | C -0.237 ± 0.15 | D -0.746 ± 0.29 | E -0.8 ± 0.14 | F -0.418 ± 0.13 | G -0.467 ± 0.094 | I -0.075 ± 0.25 | K -0.068 ± 0.12 | L -0.546 ± 0.11 | M -0.64 ± 0.19 | N -0.35 ± 0.19 | P -0.526 ± 0.15 | R -0.175 ± 0.085 | S -0.347 ± 0.098 | T -0.487 ± 0.13 | V -0.716 ± 0.095 | W -0.45 ± 0.13 | Y -0.365 ± 0.11
A43: C -0.006 ± 0.37 | E -0.343 ± 0.36 | G -0.409 ± 0.33 | I -0.577 ± 0.36 | L -0.605 ± 0.33 | N -0.303 ± 0.3 | P -0.039 ± 0.37 | R -0.273 ± 0.22 | T -0.416 ± 0.39 | V -0.616 ± 0.19 | W -0.264 ± 0.26
S44: A -0.119 ± 0.099 | D 0.212 ± 0.13 | F -0.278 ± 0.12 | G 0.05 ± 0.084 | H 0.222 ± 0.32 | K -0.104 ± 0.11 | L -0.499 ± 0.1 | M -0.223 ± 0.12 | N 0.11 ± 0.24 | Q -0.306 ± 0.21 | R -0.281 ± 0.079 | T -0.307 ± 0.12 | V -0.535 ± 0.096 | W -0.485 ± 0.14 | Y -0.428 ± 0.15
V45: C -0.027 ± 0.11 | D 0.289 ± 0.15 | E 0.362 ± 0.11 | F -0.016 ± 0.11 | G -0.149 ± 0.095 | H 0.137 ± 0.13 | I -0.026 ± 0.13 | K 0.181 ± 0.12 | L -0.076 ± 0.088 | M -0.082 ± 0.21 | N 0.031 ± 0.14 | P -0.061 ± 0.11 | R -0.031 ± 0.085 | S 0.149 ± 0.093 | T 0.131 ± 0.13 | W 0.1 ± 0.14 | Y 0.154 ± 0.17
W46: A -0.283 ± 0.1 | C -0.4 ± 0.16 | D -0.043 ± 0.15 | E -0.016 ± 0.13 | F -0.364 ± 0.15 | G -0.065 ± 0.084 | H -0.38 ± 0.17 | I -0.294 ± 0.13 | K -0.289 ± 0.2 | L -0.114 ± 0.087 | M -0.27 ± 0.13 | N -0.128 ± 0.18 | P -0.386 ± 0.13 | Q -0.136 ± 0.15 | R -0.058 ± 0.081 | S -0.314 ± 0.088
